The numbers were not newly measured in patent publication US20130251731A1, “Tau Acetylation in the Pathogenesis of Alzheimers Disease and Other Related Tauopathies” (THE TRUSTEES OF THE UNIVERSITY OF PENNSYLVANIA, priority 2012, published 2013), which cites them from elsewhere.

Like-named read-outs stand apart in the source and are kept apart here.

The data set relates to histones and microtubules.

B1: αTAT-1: cytoplasmic α-tubulin acetyltransferase (protein, UniProt Q5SQI0 1-421, looked up)
Alpha-tubulin …: MEFPFDVDALFPERITVLDQHLRPPARRPGTTTPARVDLQQQIMTIIDELGKASAKAQNLSAPITSASRMQSNRHVVYILKDSSARPAGKGAIIGFIKVGYKKLFVLDDREAHNEVEPLCILDFYIHESVQRHGHGRELFQYMLQKERVEPHQLAIDRPSQKLLKFLNKHYNLETTVPQVNNFVIFEGFFAHQHRPPAPSLRATRHSRAAAVDPTPAAPARKLPPKRAEGDIKPYSSSDREFLKVAVEPPWPLNRAPRRATPPAHPPPRSSSLGNSPERGPLRPFVPEQELLRSLRLCPPHPTARLLLAADPGGSPAQRRRTRGTPPGLVAQSCCYSRHGGVNSSSPNTGNQDSKQGEQETKNRSASEEQALSQDGSGEKPMHTAPPQAPAPPAQSWTVGGDILNARFIRNLQERRSTRPW
Turning to B1, the Kcat is, setting by setting: (Shida et al., 2010) 0.000617 s⁻¹; (substrate as listed (H4-21, H3p19, H3, microtubules)) 0.000617 s⁻¹. The Km (substrate as listed (H4-21, H3p19, H3, microtubules), read-out: Km [protein]) is 1.6 µM.
